Results taken from the RNAGym collection of RNA variant scans (doi:10.1021/acssynbio.7b00057).

B1: Pistol ribozyme (parent)
chain: GGGUCGUUGUUCCAUAAUCGCGUGGAUAUGGCACGCAAGUUUCUACCGGGCACCGUAAAUGUCCGACUGGAGCCGUUCGGGCGGCUAUAAACAGACCUCAGGCCCGAAGCGUGGCGGCACCUGCCGCCGGUGGUAAAAAAGAUCGGAAGAGCACACGUCU

Variants of: B1
Test: aptazyme ON/OFF ratio, guanine; higher = stronger switching; co-transcriptional cleavage with and without guanine

Variant	aptazyme ON/OFF ratio
U7G U8A G9A U10G U11G C12A	1.14
U7G U8A G9A U10G U11G C12U	1.48
U7G U8A G9A U10G U11G C12G	1.24
U7G U8A G9A U10C U11G	1.24
U7G U8A G9A U10C U11C	1.06
U7G U8A G9A U10C U11G C12U	1.28
U7G U8A G9A U10C U11G C12G	1.32
U7G U8A G9A U10C U11G C12A	1.04
U7G U8A G9A U10G	1.49
U7G U8A G9A U10G C12U C13A	1.27
U7G U8A G9A U10G C12U C13G	1.35
U7G U8A G9A U10G C12U C13U	1.13
U7G U8A G9A U11A C12A C13G	1.08
U7G U8A G9A U11A C12A C13U	1.21
U7G U8A G9A U11A C12A C13A	1.16
U7G U8A G9A U11G C12A	1.08
U7G U8A G9A U11G C12U	1.44
U7G U8A G9A U11G C12G	1.41
U7G U8A G9A U10G U11C C12U C13G	1.12
U7G U8A G9A U10G U11C C12U C13A	1.1
U7G U8A G9A U10G U11C C12U C13U	1.1

Variant	aptazyme ON/OFF ratio
U7G U8A G9A U11A C12U	1.25
U7G U8A G9A U11A C12G	1.24
U7G U8A G9A U11A C12A	1.27
U7G U8A G9A U10G U11G C13G	1.34
U7G U8A G9A U10G U11G C13U	1.26
U7G U8A G9A U10G U11G C13A	1.29
U7G U8A G9A U11G C12G C13A	1.14
U7G U8A G9A U11G C12G C13G	1.14
U7G U8A G9A U11G C12G C13U	1.1
U7G U8A G9C C12G C13A	1.02
U7G U8A G9C C12G C13G	1.04
U7G U8A G9C C12G C13U	1.06
U7G U8A G9A U10C U11G C12A C13U	1.13
U7G U8A G9A U10C U11G C12A C13G	1.07
U7G U8A G9A U10C U11G C12A C13A	1.07
U7G U8A G9A U10G C12G C13U	1.23
U7G U8A G9A U10G C12G C13A	1.1
U7G U8A G9A U10G C12G C13G	1.09
U7G U8A G9A U10G U11G C12G C13G	1.16
U7G U8A G9A U10G U11G C12G C13A	1.27
U7G U8A G9A U10G U11G C12G C13U	1.26

Variant	aptazyme ON/OFF ratio
U7G U8A G9A U10G U11A C12G C13U	1.14
U7G U8A G9A U10G U11A C12G C13G	1.29
U7G U8A G9A U10G U11A C12G C13A	1.04
U7G U8A G9A U10C U11G C13A	1.14
U7G U8A G9A U10C U11G C13G	1.15
U7G U8A G9A U10C U11G C13U	1.09
U7G U8A G9A U11C C13U	1.06
U7G U8A G9A U11C C13G	1.06
U7G U8A G9A U11C C13A	1.07
U7G U8A G9A U10G U11C	1.03
U7G U8A G9A U10G U11A	1.01
U7G U8A G9A U10G U11G	1.07
U7G U8A G9A U10C U11C C12U	1.06
U7G U8A G9A U10C U11C C12A	1.11
U7G U8A G9A U10C U11C C12G	1.09
U7G U8A G9C C12A C13U	0.986
U7G U8A G9C C12A C13A	1.04
U7G U8A G9C C12A C13G	1.03
U7G U8A G9A U10G U11A C13G	1.06
U7G U8A G9A U10G U11A C13U	1.03
U7G U8A G9A U10G U11A C13A	1.06

Variant	aptazyme ON/OFF ratio
U7G U8A G9A U11C C12G C13U	1.1
U7G U8A G9A U11C C12G C13G	1.04
U7G U8A G9A U11C C12G C13A	1.08
U7G U8A G9A U10G U11A C12U C13A	1.18
U7G U8A G9A U10G U11A C12U C13U	1.09
U7G U8A G9A U10G U11A C12U C13G	1.06
U7G U8A G9A U11C C12U C13G	1.29
U7G U8A G9A U11C C12U C13U	1.17
U7G U8A G9A U11C C12U C13A	1.23
U7G U8A G9A U10G U11C C12G C13A	1.1
U7G U8A G9A U10G U11C C12G C13U	1.11
U7G U8A G9A U10G U11C C12G C13G	1.04
U7G U8A G9A U10C U11A C12U C13U	1.05
U7G U8A G9A U10C U11A C12U C13A	1.09
U7G U8A G9A U10C U11A C12U C13G	1.03
U7G U8A G9C C12U C13G	1.06
U7G U8A G9C C12U C13U	1.03
U7G U8A G9C C12U C13A	1.06
U7G U8A G9A U10G U11A C12A C13A	1.04
U7G U8A G9A U10G U11A C12A C13U	1.07
U7G U8A G9A U10G U11A C12A C13G	1.16
